Laboratory results taken from IntAct's records for PubMed 19497856.

B1: Homeobox protein SIX1 (Homo sapiens), Q15475 (parent)
chain: MSMLPSFGFTQEQVACVCEVLQQGGNLERLGRFLWSLPACDHLHKNESVLKAKAVVAFHRGNFRELYKILESHQFSPHNHPKLQQLWLKAHYVEAEKLRGRPLGAVGKYRVRRKFPLPRTIWDGEETSYCFKEKSRGVLREWYAHNPYPSPREKRELAEATGLTTTQVSNWFKNRRQRDRAAEAKERENTENNNSSSNKQNQLSPLEGGKPLMSSSEEEFSPPQSPDQNSVLLLQGNMGHARSSNYSLPGLTASQPSHGLQTHQHQLQDSLLGPLTSSLVDLGS
partner: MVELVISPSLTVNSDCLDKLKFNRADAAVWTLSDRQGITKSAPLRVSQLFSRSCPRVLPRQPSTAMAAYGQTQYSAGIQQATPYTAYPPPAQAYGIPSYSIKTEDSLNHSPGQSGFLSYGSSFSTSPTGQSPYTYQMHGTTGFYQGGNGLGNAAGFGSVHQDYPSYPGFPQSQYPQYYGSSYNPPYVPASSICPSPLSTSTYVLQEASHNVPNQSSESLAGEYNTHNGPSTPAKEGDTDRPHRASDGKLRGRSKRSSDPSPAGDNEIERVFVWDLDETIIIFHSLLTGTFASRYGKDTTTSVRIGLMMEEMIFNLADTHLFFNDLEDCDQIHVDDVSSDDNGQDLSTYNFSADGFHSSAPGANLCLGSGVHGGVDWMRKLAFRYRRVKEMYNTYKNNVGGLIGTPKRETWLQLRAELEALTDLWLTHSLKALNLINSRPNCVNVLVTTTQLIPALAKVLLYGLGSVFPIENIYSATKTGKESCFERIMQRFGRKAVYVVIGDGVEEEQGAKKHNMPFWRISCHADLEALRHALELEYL

Variants of: B1
Settings: with eya2_human EYA2, O00167

| effect of a mutation on the interaction | Variant |
| --- | --- |
| decreasing interaction strength | MSMLPSFGFTQEQVACECEVLQQGGNLERLGRFLWSLPACDHLHKNESVLKAKAVVAFHRGNFRELYKILESHQFSPHNHPKLQQLWLKAHYVEAEKLRGRPLGAVGKYRVRRKFPLPRTIWDGEETSYCFKEKSRGVLREWYAHNPYPSPREKRELAEATGLTTTQVSNWFKNRRQRDRAAEAKERENTENNNSSSNKQNQLSPLEGGKPLMSSSEEEFSPPQSPDQNSVLLLQGNMGHARSSNYSLPGLTASQPSHGLQTHQHQLQDSLLGPLTSSLVDLGS [V17E] |
